# Measured values published in doi:10.64898/2025.12.12.693948.
# Assays:
# [1] = biological target: FLAG-tagged AnkG UPA-DD domains without the E35a-encoded peptide (mouse); test: co-IP; N2a cells 48 h after transfection with FLAG-UPA-DD minigene plasmids with or without E35a; Pierce IP lysis buffer; anti-FLAG M2 antibody on Protein G magnetic beads; immunoblot with anti-IP3R1
# [2] = biological target: ankyrin-G (AnkG) lacking the E35a-encoded peptide, endogenous, Ank3 E35a-/- mouse cerebellum (mouse (endogenous in cerebellum)) (UniProt G5E8K5); test: co-IP; mouse cerebellum whole tissue lysate (500 μg total protein; WT or Ank3 E35a-/-); anti-AnkG antibody (Santa Cruz sc-12719) on Protein G magnetic beads, overnight at 4°C; washed with NT2 buffer; immunoblot with anti-IP3R1 or anti-Na-K ATPase; normalised to the AnkG 190 kDa isoform
# FLAG-tagged AnkG UPA-DD domains without the E35a-encoded peptide (mouse), sequence (G5E8K5 whole entry, the tested form may be a part, canonical isoform): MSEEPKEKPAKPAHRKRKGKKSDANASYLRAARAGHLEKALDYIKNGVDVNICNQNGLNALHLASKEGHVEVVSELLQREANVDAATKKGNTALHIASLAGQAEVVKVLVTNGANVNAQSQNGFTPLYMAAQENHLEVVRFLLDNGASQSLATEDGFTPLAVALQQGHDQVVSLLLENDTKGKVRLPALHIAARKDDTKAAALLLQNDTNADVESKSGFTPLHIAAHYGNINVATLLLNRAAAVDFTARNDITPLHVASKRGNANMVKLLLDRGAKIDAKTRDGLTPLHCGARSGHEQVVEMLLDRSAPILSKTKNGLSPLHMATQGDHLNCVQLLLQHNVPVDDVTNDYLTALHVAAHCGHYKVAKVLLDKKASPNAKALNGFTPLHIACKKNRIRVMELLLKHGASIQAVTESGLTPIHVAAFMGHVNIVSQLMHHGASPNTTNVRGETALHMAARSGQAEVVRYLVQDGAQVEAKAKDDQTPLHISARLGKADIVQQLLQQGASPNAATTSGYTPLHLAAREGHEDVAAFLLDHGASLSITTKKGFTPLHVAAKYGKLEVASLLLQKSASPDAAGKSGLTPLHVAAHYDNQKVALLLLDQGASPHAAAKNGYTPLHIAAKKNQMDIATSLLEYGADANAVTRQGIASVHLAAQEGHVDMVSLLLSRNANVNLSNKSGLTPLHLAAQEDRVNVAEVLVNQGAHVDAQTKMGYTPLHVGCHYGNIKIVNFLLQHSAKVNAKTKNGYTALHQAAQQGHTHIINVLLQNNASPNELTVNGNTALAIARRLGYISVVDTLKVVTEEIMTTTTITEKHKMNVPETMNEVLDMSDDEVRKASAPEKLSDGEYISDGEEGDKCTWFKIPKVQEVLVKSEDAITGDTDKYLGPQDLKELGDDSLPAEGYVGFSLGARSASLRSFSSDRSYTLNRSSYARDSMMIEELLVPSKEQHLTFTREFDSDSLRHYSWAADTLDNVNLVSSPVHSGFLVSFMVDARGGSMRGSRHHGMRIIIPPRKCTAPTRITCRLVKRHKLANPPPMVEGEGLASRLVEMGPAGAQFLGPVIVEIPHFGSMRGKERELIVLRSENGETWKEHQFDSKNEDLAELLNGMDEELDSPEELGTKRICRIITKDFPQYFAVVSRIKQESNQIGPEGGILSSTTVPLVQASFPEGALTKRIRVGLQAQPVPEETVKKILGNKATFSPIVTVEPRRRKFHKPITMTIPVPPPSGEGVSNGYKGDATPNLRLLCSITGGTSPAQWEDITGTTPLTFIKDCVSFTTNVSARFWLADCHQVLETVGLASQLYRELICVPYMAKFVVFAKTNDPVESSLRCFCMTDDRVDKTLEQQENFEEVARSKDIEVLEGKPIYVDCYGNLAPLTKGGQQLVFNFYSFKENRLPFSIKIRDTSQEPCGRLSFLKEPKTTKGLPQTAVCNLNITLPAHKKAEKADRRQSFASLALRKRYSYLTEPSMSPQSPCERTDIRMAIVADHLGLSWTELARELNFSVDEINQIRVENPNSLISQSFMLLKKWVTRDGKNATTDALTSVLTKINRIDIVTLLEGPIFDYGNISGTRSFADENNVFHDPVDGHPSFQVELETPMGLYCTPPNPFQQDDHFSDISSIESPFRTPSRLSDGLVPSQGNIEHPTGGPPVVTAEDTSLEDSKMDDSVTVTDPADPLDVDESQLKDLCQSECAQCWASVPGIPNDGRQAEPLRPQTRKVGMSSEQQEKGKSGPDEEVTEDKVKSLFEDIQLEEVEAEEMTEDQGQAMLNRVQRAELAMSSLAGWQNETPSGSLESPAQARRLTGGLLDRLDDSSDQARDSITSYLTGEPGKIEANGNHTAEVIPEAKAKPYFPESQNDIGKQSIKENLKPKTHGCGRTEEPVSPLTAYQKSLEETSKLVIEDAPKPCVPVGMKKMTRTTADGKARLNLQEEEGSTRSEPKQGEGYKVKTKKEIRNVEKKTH
percent of InsP3R1 pulled down relative to UPA-DD with E35a [1],percent reduction of co-precipitated InsP3R1 against WT [2],Substance
30%,,"type 1 inositol trisphosphate receptor (InsP3R1), endogenous, N2a cells (from UniProt P11881 1-2749) (natural protein)"
,77%,"type 1 inositol trisphosphate receptor (InsP3R1), endogenous, mouse cerebellum (from UniProt P11881 1-2749) (natural protein)"
